Source: patent publication US20220041711A1 (NGM BIOPHARMACEUTICALS, published 2022)
Like-named read-outs stand apart in the source and are kept apart here.

B1: anti-mouse LAIR-1 antibody 43H2 (antibody, V domains shown)
VH: EVQLVESGGGLVQPGRSLKVSCAASGFTFSNYGIHWIRQAPTKGLEWVASISPSGRSTYFRDSVKGRFTISRDNAKNTLYLQLDSLRSEDTATYYCATGINYSSFDYWGQGVMVTVSS
VL: DIVMTQSPTSMSISVGDRVTMNCKASQNVGSHVDWYQQKTGQSPKLLISTASNRYTGVPDRFTGSGSGTDFTFTINNMQTEDLAVYYCMQSNSYPPTFGGGTKLELK
notes: Raised in rats
B2: humanized anti-LAIR-1 antibody Hz47H1.v4 (antibody, human IgG1, kappa, N297G, V domains shown)
VH: EVQLVESGGGLVQPGGSLRLSCAASGFTFNINAMNWVRQAPGKGLEWVARIRTKNYNYATFYADSVKDRFTISRDDSKNSLYLQMNSLKTEDTAVYYCVRDRAGFFAYWGQGTTVTVSS
VL: DIQMTQSPSSLSASVGDRVTITCLASQTIGTWLGWYQQKPGKAPKLLIYAATSLAEGVPSRFSGSGSGTDFTLTISSLQPEDFATYYCQQLYSTPLTFGGGTKVEIKR
notes: Humanized 47H1 with reengineered VH CDR2 and VL CDR2
B3: anti-LAIR-1 antibody ch47H1 (antibody, V domains shown)
VH: EVQLVETGGGLVQPKGSLKLSCAASGFTFNINAMNWVRQAPGKGLEWVARIRTKNNNYATFYADSVKDRFTISRDDSQSMLYLQMNNLKTDDTAMYYCVRDRAGFFAYWGQGTPVTVSA
VL: DIQMTQSPASQSASLGESVTITCLASQTIGTWLGWYRQKPGKSPQLLIYAATSLADGVPSRFSGSGSGTKFSFKISSLQAEDFVIYYCQQLYSTPLTFGSGTKLEIK
notes: The prefix 'ch' is not defined; detected with anti-human Fc secondary antibody

Key:
[1] = target: T1, mouse LAIR-1-hFc (Sino Biological) (mouse, UniProt Q8BG84 22-144, limits assumed); experiment: flow cytometry blocking: antibody pre-incubated with 2 µg/mL mouse LAIR-1-hFc, added to HEK-293T cells transfected with mouse MARCO, Alexa Fluor 647 anti-human Fc, MFI (right panel)
T1 construct: Bought; also called mouse LAIR-1-Fc; not shown: human Fc (hFc)
T1 sequence: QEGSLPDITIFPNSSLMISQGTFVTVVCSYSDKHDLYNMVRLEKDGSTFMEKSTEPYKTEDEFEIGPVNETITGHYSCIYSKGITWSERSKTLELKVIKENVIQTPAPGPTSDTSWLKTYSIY

[2] = target: T2, mouse LAIR-1-PILRβ chimeric receptor on GFP reporter cells (mouse); experiment: cell-based or functional assay
[3] = target: T1, mouse LAIR-1-hFc (Sino Biological); experiment: ELISA blocking: plate coated with 2 µg/mL mouse collagen type 1, antibody pre-incubated with 2 µg/mL mouse LAIR-1-hFc, HRP anti-human Fc, OD650 (left panel)
[4] = target: T2, mouse LAIR-1-PILRβ chimeric receptor on …; experiment: cell-based or functional assay; remark: listed apart in the source
[5] = target: T3, cyno LAIR-1-CD3ζ chimeric receptor on NFAT-GFP reporter cells (cynomolgus monkey; human); experiment: flow cytometry on cyno LAIR-1 reporter cells, PE anti-human Fc secondary, MFI (panel Cynomolgus Monkey LAIR1 Cells)
T3 construct: domain: transmembrane/intracellular domain; also called cyno LAIR-1-CD3ζ-NFAT-GFP reporter cells; cyno LAIR-1 reporter cells

[6] = target: T3, cyno LAIR-1-CD3ζ chimeric receptor on …; experiment: cell-based or functional assay
[7] = target: T3, cyno LAIR-1-CD3ζ chimeric receptor on …; experiment: cell-based or functional assay; remark: listed apart in the source
[8] = target: T4, human LAIR-1-CD3ζ chimeric receptor on NFAT-GFP reporter cells (human, UniProt P20963 31-164, limits assumed); experiment: cell-based or functional assay
[9] = target: T4, human LAIR-1-CD3ζ chimeric receptor on …; experiment: cell-based or functional assay; remark: listed apart in the source
[10] = target: T3, cyno LAIR-1-CD3ζ chimeric receptor on …; experiment: cell-based or functional assay; remark: listed apart in the source
[11] = target: T5, mouse LAIR-1 (form in the assay not stated) (mouse, UniProt Q8BG84 22-144, limits assumed); experiment: not described
T5 sequence: T1 sequence

[12] = target: T6, human LAIR-1-ECD (human, UniProt Q6GTX8 22-165); experiment: SPR (Biacore) as in Example 2
T6 construct: Recombinant, expressed in mammalian cells; also called extracellular region of human LAIR-1
T6 chain: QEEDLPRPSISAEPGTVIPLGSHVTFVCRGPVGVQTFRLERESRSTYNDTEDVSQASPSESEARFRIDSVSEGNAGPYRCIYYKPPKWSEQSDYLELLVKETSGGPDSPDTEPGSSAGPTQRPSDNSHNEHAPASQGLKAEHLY

[13] = target: T7, cyno LAIR-1-ECD (cynomolgus monkey); experiment: SPR (Biacore) as in Example 2
T7 construct: Recombinant, expressed in mammalian cells; also called extracellular region of cyno LAIR-1
T7 chain: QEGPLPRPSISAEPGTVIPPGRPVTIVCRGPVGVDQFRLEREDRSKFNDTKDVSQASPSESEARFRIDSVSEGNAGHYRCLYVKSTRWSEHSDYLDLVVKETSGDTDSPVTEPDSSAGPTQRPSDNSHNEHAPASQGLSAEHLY

[14] = target: T8, human LAIR-1-Fc (human, UniProt Q6GTX8 22-165); experiment: ELISA blocking: plate coated with 5 µg/mL human collagen type 1, antibody titrated, 1 µg/mL biotinylated human LAIR-1-Fc, streptavidin-HRP, OD650
T8 construct: also called biotinylated human LAIR-1-Fc; not shown: a Fc region
T8 chain: T6 chain

[15] = target: T9, human LAIR-1b (alternative isoform of human LAIR-1) on transfected 293T cells (human, UniProt Q6GTX8 22-287); experiment: flow cytometry on cells expressing human LAIR-1b, PE anti-human Fc secondary, MFI (panel Human LAIR1 (Truncated) Cells)
T9 chain: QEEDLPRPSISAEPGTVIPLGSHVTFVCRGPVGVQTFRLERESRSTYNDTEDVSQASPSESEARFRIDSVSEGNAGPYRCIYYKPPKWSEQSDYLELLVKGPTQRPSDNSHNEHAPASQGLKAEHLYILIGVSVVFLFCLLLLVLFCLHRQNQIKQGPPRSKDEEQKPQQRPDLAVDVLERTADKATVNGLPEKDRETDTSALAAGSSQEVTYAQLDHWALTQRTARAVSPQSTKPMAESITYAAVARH

[16] = target: T4, human LAIR-1-CD3ζ chimeric receptor on …; experiment: flow cytometry on human LAIR-1 reporter cells, PE anti-human Fc secondary, MFI (panel Human LAIR1 Cells)
[17] = target: T4, human LAIR-1-CD3ζ chimeric receptor on …; experiment: cell-based or functional assay; remark: listed apart in the source
[18] = target: T4, human LAIR-1-CD3ζ chimeric receptor on …; experiment: cell-based or functional assay; remark: listed apart in the source
[19] = target: T10, human LAIR-1, endogenous on human cells (human, UniProt Q6GTX8 22-287); experiment: flow cytometry of human PBMCs (9 donors) with Alexa Fluor 488-labelled ch47H1
T10 construct: Native receptor of primary human cells and of the THP1 line; isoform on the cells not determined; also called LAIR-1 on PBMC subsets, THP1 cells, monocyte-derived dendritic cells, macrophages and T-cells
T10 chain: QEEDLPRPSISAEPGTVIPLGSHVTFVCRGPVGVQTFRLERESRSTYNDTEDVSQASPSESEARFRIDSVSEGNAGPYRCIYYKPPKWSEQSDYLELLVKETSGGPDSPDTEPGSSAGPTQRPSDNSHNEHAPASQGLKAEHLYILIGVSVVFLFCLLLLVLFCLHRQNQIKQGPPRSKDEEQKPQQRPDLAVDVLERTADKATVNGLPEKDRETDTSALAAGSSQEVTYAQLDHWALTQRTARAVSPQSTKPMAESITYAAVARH

[20] = target: T4, human LAIR-1-CD3ζ chimeric receptor on …; experiment: cell-based or functional assay; remark: listed apart in the source
[21] = target: T4, human LAIR-1-CD3ζ chimeric receptor on …; experiment: cell-based or functional assay; remark: listed apart in the source

Binder | EC50 (read off the curve) [5] [pM] | IC50 (read off the curve): % GFP+ cyno LAIR-1 reporter cells co-cultured with bEnd.3 cells [6] [pM] | IC50 (read off the curve): % GFP+ cyno LAIR-1 reporter cells on coated MARCO-his [7] [pM] | IC50 (read off the curve): % GFP+ cyno LAIR-1 reporter cells on coated collagen 1 [7] [pM] | IC50 (read off the curve): % GFP+ cyno LAIR-1 reporter cells on coated collagen 4 [7] [pM] | IC50 (read off the curve): % GFP+ human LAIR-1 reporter cells on coated MARCO-his [8] [pM] | IC50 (read off the curve): % GFP+ human LAIR-1 reporter cells on coated collagen 1 [8] [pM] | IC50 (read off the curve): % GFP+ human LAIR-1 reporter cells on coated collagen 4 [8] [pM] | IC50 (read off the curve): % GFP+ cyno LAIR-1 reporter cells on polymerized collagen matrix [10] [pM] | Kd [12] [nM] | koff [12] [s⁻¹] | kon [12] [M⁻¹ s⁻¹] | Kd [13] [nM] | koff [13] [s⁻¹] | kon [13] [M⁻¹ s⁻¹] | IC50 (read off the curve) [14] [nM] | EC50 (read off the curve) [15] [nM] | EC50 (read off the curve) [16] [pM] | other results
B1 |  |  |  |  |  |  |  |  |  |  |  |  |  |  |  |  |  |  | IC50 (read off the curve) [1]: ~20 nM; IC50 (read off the curve): % GFP+ mouse LAIR-1 reporter cells co-cultured with bEnd.3 cells [2]: ~20 pM; IC50 (read off the curve) [3]: ~80 nM; IC50 (read off the curve): % GFP+ mouse LAIR-1 reporter cells on coated human MARCO-his [4]: ~100 pM; IC50 (read off the curve): % GFP+ mouse LAIR-1 reporter cells on coated mouse collagen type 1 [4]: ~40 pM; IC50 (read off the curve): % GFP+ mouse LAIR-1 reporter cells on coated mouse collagen type 4 [4]: ~20 pM
B2 | ~1000 | ~100 | ~60 | ~100 | ~80 | ~20 | ~20 | ~20 | ~90 | 0.26 | 0.0006 | 2.3e+06 | 4.3 | 0.0016 | 390000 | ~3 | ~2 | ~200 | IC50 (M), reporter cell assay, ligand COLEC12 [9]: 1.2e-11 M; IC50 (M), reporter cell assay, ligand Collagen 1 [9]: 3.2e-11 M; IC50 (M), reporter cell assay, ligand Collagen 4 [9]: 3.2e-11 M; IC50 (M), reporter cell assay, ligand MARCO [9]: 3.2e-11 M; IC50 (M), reporter cell assay, ligand MBL [9]: 4.2e-11 M; IC50 (M), reporter cell assay, ligand Polymerized Collagen Matrix [9]: 3e-11 M; IC50 (M), reporter cell assay, ligand SPD [9]: 2e-11 M; IC50 (M), reporter cell assay, ligand Tumor Cell Collagens [9]: 1.6e-11 M; binding result [11]: no binding
B3 | ~700 | ~100 | ~100 | ~200 | ~200 | ~20 | ~20 | ~20 | ~200 | 0.34 | 0.00051 | 1.5e+06 | 4.6 | 0.001 | 220000 | ~3 | ~1 | ~200 | IC50 (read off the curve): % GFP+ human LAIR-1 reporter cells co-cultured with bEnd.3 cells [17]: ~20 pM; IC50 (read off the curve): % GFP+ human LAIR-1 reporter cells on polymerized collagen matrix [18]: ~30 pM; binding result [19]: binds; IC50 (read off the curve): % GFP+ human LAIR-1 reporter cells on coated MARCO-his [20]: ~70 pM; IC50 (read off the curve): % GFP+ human LAIR-1 reporter cells on coated collagen 1 [20]: ~90 pM; IC50 (read off the curve): % GFP+ human LAIR-1 reporter cells on coated collagen 4 [20]: ~60 pM; IC50 (read off the curve): % GFP+ human LAIR-1 reporter cells on coated C1 complex [21]: ~20 pM; IC50 (read off the curve): % GFP+ human LAIR-1 reporter cells on coated COLEC12 [21]: ~50 pM; IC50 (read off the curve): % GFP+ human LAIR-1 reporter cells on coated MARCO-his [21]: ~30 pM; IC50 (read off the curve): % GFP+ human LAIR-1 reporter cells on coated MBL [21]: ~60 pM; IC50 (read off the curve): % GFP+ human LAIR-1 reporter cells on coated SP-D [21]: ~30 pM; IC50 (read off the curve): % GFP+ human LAIR-1 reporter cells on coated collagen 1 [21]: ~20 pM; IC50 (read off the curve): % GFP+ human LAIR-1 reporter cells on coated collagen 4 [21]: ~20 pM
